Values of other authors, collected in patent US20180228866A1, “COMPOSITIONS” (Sigmoid Pharma Limited, priority 2015, published 2018).

Tested on: serum TNF-α, IFN-γ, IL-6
Details: within 1-4 hours after injection

OKT3: anti-CD3 mAb, administered as a systemic immunosuppressive agent during organ transplantation
serum levels of proinflammatory cytokines such as TNF-α, IFN-γ, and IL-6: markedly elevated
